Source: patent publication US20220259294A1

Key:
[1] = target: IHF peptide of H. influenzae (Haemophilus influenzae); assay: Kd at pH 5.5 (Octet biosensor per Example 1)
[2] = target: IHF peptide of H. influenzae (Haemophilus influenzae); assay: Kd at pH 7.5 (Octet biosensor per Example 1)
[3] = target: IHF peptide of H. influenzae (Haemophilus influenzae); assay: Kd at pH 6.5 (Octet biosensor per Example 1)
[4] = target: IHF peptide of H. influenzae (Haemophilus influenzae); assay: Kd at pH 4.5 (Octet biosensor per Example 1)

B1: TRL295 (antibody, V domains shown)
VH: QVQLVESGGGLVQPGGSLRLSCAASGFPFSSYAMSWVRQAPGKGLEWVSAISGNGADSYYADSVKGRFTTSRDKSKNTVYLQMNRLRAEDTAVYYCAKDMRRYHYDSSGLHFWGQGTLVTVSS
VL: DIELTQAPSVSVYPGQTARITCSGDALPKQYAYWYQQKPGQAPVVVIYKDSERPSGISERFSGSSSGTTVTLTISGVQAGDEADYYCQSVDTSVSYYVVFGGGTKLTVL
- Kd [1]: 2.8 nM
- Kd [2]: 4.2 nM
- Kd [3]: 2.8 nM
- Kd [4]: 3.7 nM
